Results on 109 substances are retold here after US20070224188A1.

This experiment concerns the target biotin-labeled soluble FcRn. The experiment is described as follows: FcRn ELISA pH 6.0.

As for anti-CD20 IgG1 E283G (antibody), the FcRn pH6.0 (% of wild type) turned out to be 137. For anti-CD20 IgG1 330R332D (antibody), the FcRn6.0 (% of wild type) is 88. anti-CD20 IgG1 P238H (antibody) had a FcRn pH6.0 (% of wild type) of 72. On the same count and under the same terms, the figure for anti-CD20 IgG1 P247A (antibody) is 97.

Take anti-CD20 IgG1 V279H (antibody): the FcRn pH6.0 (% of wild type) turned out to be 173. On to anti-CD20 IgG1 247L332E376I (antibody), for which the FcRn6.0 (% of wild type) was 74. In turn, anti-CD20 IgG1 E430N (antibody) showed a FcRn pH6.0 (% of wild type) of 171. On the same count and under the same terms, the figure for anti-CD20 IgG1 E283Y (antibody) is 142. anti-CD20 IgG1 E293S (antibody) registered a FcRn pH6.0 (% of wild type) of 101. The same measure, in the same setting: the figure for anti-CD20 IgG1 G237N (antibody) is 91. anti-CD20 IgG1 332E376V (antibody) registered a FcRn6.0 (% of wild type) of 132. On the same count and under the same terms, the value for anti-CD20 IgG1 258D283R (antibody) was 411. On to anti-CD20 IgG1 V279Q (antibody), for which the FcRn pH6.0 (% of wild type) turned out to be 181. The same measure, in the same setting: the value for anti-CD20 IgG1 T250M (antibody) was 165. Still for that read-out and setting: the value for anti-CD20 IgG1 A339T (antibody) was 138; that for anti-CD20 IgG1 Q311D (antibody) was 38. Same read-out and setting: the figure for anti-CD20 IgG1 Y436T (antibody) is 115; for anti-CD20 IgG1 Q311R (antibody) it is 14. In turn, anti-CD20 IgG1 P343E (antibody) came in with a FcRn pH6.0 (% of wild type) of 345. On the same count and under the same terms, the value for anti-CD20 IgG1 E430I (antibody) was 308; that for anti-CD20 IgG1 K288N (antibody) was 162. The substance anti-CD20 IgG1 251F332E376I (antibody) displayed a FcRn6.0 (% of wild type) of 68.

On to anti-CD20 IgG1 H285N (antibody), for which the FcRn pH6.0 (% of wild type) is 202. On the same count and under the same terms, the figure for anti-CD20 IgG1 G236F (antibody) is 88; for anti-CD20 IgG1 L235R (antibody) it is 93; for anti-CD20 IgG1 T256L (antibody) it is 78. The substance anti-CD20 IgG1 Y436L (antibody) displayed a FcRn pH6.0 (% of wild type) of 172. Regarding anti-CD20 IgG1 S304E (antibody), the FcRn pH6.0 (% of wild type) was determined as 101.

“anti-CD20 IgG1 256P314Y332E440Y (antibody)” showed a FcRn6.0 (% of wild type) of 86. For the substance anti-CD20 IgG1 S424V (antibody), the FcRn pH6.0 (% of wild type) came out at 57. anti-CD20 IgG1 Y373V (antibody) returned a FcRn pH6.0 (% of wild type) of 69. Still for that read-out and setting: the figure for anti-CD20 IgG1 S254M (antibody) is 0. With anti-CD20 IgG1 283R376V (antibody), the FcRn6.0 (% of wild type) was determined as 475. The substance anti-CD20 IgG1 S254N (antibody) gave a FcRn pH6.0 (% of wild type) of 8. For anti-CD20 IgG1 T307E (antibody), the FcRn pH6.0 (% of wild type) worked out at 492. The same measure, in the same setting: the figure for anti-CD20 IgG1 E283D (antibody) is 110; for anti-CD20 IgG1 I332R (antibody) it is 114. anti-CD20 IgG1 R292A (antibody) returned a FcRn pH6.0 (% of wild type) of 85. Same read-out and setting: the figure for anti-CD20 IgG1 D265K (antibody) is 107. Substance anti-CD20 IgG1 S254K (antibody) returned a FcRn pH6.0 (% of wild type) of 9.

anti-CD20 IgG1 N315P (antibody) had a FcRn pH6.0 (% of wild type) of 14. Same read-out and setting: the figure for anti-CD20 IgG1 P343N (antibody) is 105. With anti-CD20 IgG1 376V434H (antibody), the FcRn6.0 (% of wild type) came to 382. As to anti-CD20 IgG1 G236R (antibody), the FcRn pH6.0 (% of wild type) worked out at 101. In turn, anti-CD20 IgG1 Q311V (antibody) showed a FcRn pH6.0 (% of wild type) of 558. In turn, anti-CD20 IgG1 T256Q (antibody) displayed a FcRn pH6.0 (% of wild type) of 64. On the same count and under the same terms, the value for anti-CD20 IgG1 A339G (antibody) was 67. anti-CD20 IgG1 256P434H (antibody) gave a FcRn6.0 (% of wild type) of 342. anti-CD20 IgG1 D270A (antibody) showed a FcRn pH6.0 (% of wild type) of 87. Same read-out and setting: the value for anti-CD20 IgG1 P247D (antibody) was 54. In turn, anti-CD20 IgG1 S267G (antibody) came in with a FcRn pH6.0 (% of wild type) of 86. In the case of anti-CD20 IgG1 D280K (antibody), the FcRn pH6.0 (% of wild type) turned out to be 120. The substance anti-CD20 IgG1 E283N (antibody) showed a FcRn pH6.0 (% of wild type) of 119. On to anti-CD20 IgG1 258D311I (antibody), for which the FcRn6.0 (% of wild type) was 522.

As for anti-CD20 IgG1 Y373T (antibody), the FcRn pH6.0 (% of wild type) worked out at 82. Substance anti-CD20 IgG1 S426L (antibody) gave a FcRn pH6.0 (% of wild type) of 117. anti-CD20 IgG1 V279A (antibody) gave a FcRn pH6.0 (% of wild type) of 214. Regarding anti-CD20 IgG1 P238V (antibody), the FcRn pH6.0 (% of wild type) worked out at 102. On the same count and under the same terms, the figure for anti-CD20 IgG1 L251I (antibody) is 7; for anti-CD20 IgG1 G341K (antibody) it is 67; for anti-CD20 IgG1 S267H (antibody) it is 86.

For anti-CD20 IgG1 V279D (antibody), the FcRn pH6.0 (% of wild type) came out at 367. As to anti-CD20 IgG1 E380D (antibody), the FcRn pH6.0 (% of wild type) was determined as 73. Regarding anti-CD20 IgG1 S254I (antibody), the FcRn pH6.0 (% of wild type) was found to be 25. On to anti-CD20 IgG1 257I311I (antibody), for which the FcRn6.0 (% of wild type) is 409. anti-CD20 IgG1 P343R (antibody) returned a FcRn pH6.0 (% of wild type) of 198. Take anti-CD20 IgG1 E382Y (antibody): the FcRn pH6.0 (% of wild type) was 188.

anti-CD20 IgG1 P238L (antibody) displayed a FcRn pH6.0 (% of wild type) of 115.

anti-CD20 IgG1 258D376V (antibody) gave a FcRn6.0 (% of wild type) of 415.

On to anti-CD20 IgG1 A339K (antibody), for which the FcRn pH6.0 (% of wild type) came out at 83. As to anti-CD20 IgG1 Y373E (antibody), the FcRn pH6.0 (% of wild type) worked out at 106. On the same count and under the same terms, the figure for anti-CD20 IgG1 P238W (antibody) is 87; for anti-CD20 IgG1 V379N (antibody) it is 74. Same read-out and setting: the value for anti-CD20 IgG1 V379Q (antibody) was 85; that for anti-CD20 IgG1 S254Q (antibody) was 9. The same measure, in the same setting: the value for anti-CD20 IgG1 R255N (antibody) was 27; that for anti-CD20 IgG1 E430P (antibody) was 86; that for anti-CD20 IgG1 E430V (antibody) was 281. On to anti-CD20 IgG1 D376G (antibody), for which the FcRn pH6.0 (% of wild type) turned out to be 135. With anti-CD20 IgG1 E283P (antibody), the FcRn pH6.0 (% of wild type) amounted to 136. In the case of anti-CD20 IgG1 E318P (antibody), the FcRn pH6.0 (% of wild type) was 75.

As to anti-CD20 IgG1 G341W (antibody), the FcRn pH6.0 (% of wild type) was 76. Turning to anti-CD20 IgG1 P247S (antibody), the FcRn pH6.0 (% of wild type) amounted to 81.

In the case of anti-CD20 IgG1 D270M (antibody), the FcRn pH6.0 (% of wild type) amounted to 81. The substance anti-CD20 IgG1 G341H (antibody) came in with a FcRn pH6.0 (% of wild type) of 65. Same read-out and setting: the figure for anti-CD20 IgG1 P247T (antibody) is 75. For the substance anti-CD20 IgG1 G237K (antibody), the FcRn pH6.0 (% of wild type) amounted to 78. The same measure, in the same setting: the value for anti-CD20 IgG1 P257I (antibody) was 1020; that for anti-CD20 IgG1 P343F (antibody) was 89; that for anti-CD20 IgG1 E430W (antibody) was 11. With anti-CD20 IgG1 G341P (antibody), the FcRn pH6.0 (% of wild type) was 127. Still for that read-out and setting: the figure for anti-CD20 IgG1 S254A (antibody) is 7. anti-CD20 IgG1 I332G (antibody): the FcRn pH6.0 (% of wild type) was 94. As to anti-CD20 IgG1 E283Q (antibody), the FcRn pH6.0 (% of wild type) came to 117. Same read-out and setting: the value for anti-CD20 IgG1 D376A (antibody) was 155; that for anti-CD20 IgG1 E430D (antibody) was 44. In turn, anti-CD20 IgG1 256P332E (antibody) registered a FcRn6.0 (% of wild type) of 121. In turn, anti-CD20 IgG1 Q311W (antibody) had a FcRn pH6.0 (% of wild type) of 215. Still for that read-out and setting: the figure for anti-CD20 IgG1 P343S (antibody) is 101; for anti-CD20 IgG1 P238Y (antibody) it is 74. The substance anti-CD20 IgG1 V279W (antibody) showed a FcRn pH6.0 (% of wild type) of 162.

anti-CD20 IgG1 H268D (antibody) had a FcRn pH6.0 (% of wild type) of 68. Same read-out and setting: the figure for anti-CD20 IgG1 E283F (antibody) is 168; for anti-CD20 IgG1 K288P (antibody) it is 119.

The substance anti-CD20 IgG1 E430Q (antibody) returned a FcRn pH6.0 (% of wild type) of 320.

With anti-CD20 IgG1 S440L (antibody), the FcRn pH6.0 (% of wild type) was found to be 126.

On to anti-CD20 IgG1 K248A (antibody), for which the FcRn pH6.0 (% of wild type) is 15.

anti-CD20 IgG1 Y373G (antibody) gave a FcRn pH6.0 (% of wild type) of 38. anti-CD20 IgG1 258D307E (antibody): the FcRn6.0 (% of wild type) stood at 237.
